# Assay results taken from US20100105875A1 (published 2010).
# T1: fHbp of N. meningitidis strain MC58 (full-length mature factor H binding protein) (Neisseria meningitidis strain MC58, UniProt E6MV22 20-274)
# T1 construct: also called MC58 fHbp; protein 741
# T1 sequence: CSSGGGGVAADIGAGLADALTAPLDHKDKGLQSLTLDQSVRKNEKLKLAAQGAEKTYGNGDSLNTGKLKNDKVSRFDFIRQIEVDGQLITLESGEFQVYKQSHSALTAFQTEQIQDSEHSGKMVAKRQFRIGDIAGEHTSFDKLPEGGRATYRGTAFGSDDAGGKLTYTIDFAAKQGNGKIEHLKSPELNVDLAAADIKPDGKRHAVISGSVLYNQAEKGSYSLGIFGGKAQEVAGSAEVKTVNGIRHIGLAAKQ
# T2: recombinant fHbp from MC58 with Arg204 changed to histidine (Neisseria meningitidis strain MC58, UniProt E6MV22 27-274)
# T2 construct: also called Arg204→His mutant
# T2 sequence: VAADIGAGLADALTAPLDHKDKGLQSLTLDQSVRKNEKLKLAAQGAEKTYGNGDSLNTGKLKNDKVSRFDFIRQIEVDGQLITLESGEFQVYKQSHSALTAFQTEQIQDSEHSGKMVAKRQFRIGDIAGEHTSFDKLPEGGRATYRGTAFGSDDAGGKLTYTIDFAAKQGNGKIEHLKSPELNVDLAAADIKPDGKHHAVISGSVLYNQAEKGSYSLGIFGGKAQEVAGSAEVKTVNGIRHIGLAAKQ
# Key:
# [1] = target: T1, fHbp of N. meningitidis strain MC58 …; experiment: western blot on cell extracts; FACS on bacteria
# [2] = target: T2, recombinant fHbp from MC58 with Arg204 …; experiment: western blot of site-directed mutant of recombinant MC58 fHbp
binder,measurement,setting,value
"MAb502 (antibody, V domains shown, also called monoclonal anti-fHbp antibody MAb502) VH: EVQLQESGPGLAKPSQTLSLTCSVTGYSITSDFWNWIRKFPGNKLEYMGYISYSGSTDYNPSLKSRISITRDTSKNQYYLQLNSVTAEDTATYYCARYFGSSYAMDHWGQGTSVTVSS VL: DIQMTQSPASLSASVGETVTITCRASGNIHNYLAWYQQKQGKSPQLLVYTAKTLAEGVPSRFSGSGSGTQFSLKINSLQPEDFGSYYCQHFWSTPWTFGGGTKLEIKR",binding result,[1],binds
same,binding result,[2],no binding
